Measurements published in ChEMBL document CHEMBL1122090, “Species- or isozyme-specific enzyme inhibitors. 7. Selective effects in inhibitions of rat adenylate kinase isozymes by adenosine 5'-phosphate derivatives” (J Med Chem, 1982).

B1: GTP:AMP phosphotransferase AK3, mitochondrial (Rattus norvegicus), P29411 (protein)
chain: MGASGRLLRAVIMGAPGSGKGTGSSRITKHFELKHLSSGDLLRQNMLQGTEIAVLAKSFIDQGKLIPDDDMTRLALHELKNLTQCSWLLDGFPRTLPQAEALDRVYQIDTVINLNVPFEVIKLRLTARWIHPASGRVYNIEFNPPKTVGIDDLTGEPLIQREDDKPETVIKRLKAYEAQTEPVLQYYQKKGVLETFSGTETNKIRPHVYSFLQMKVPETIQKASVTP
B2: Adenylate kinase isoenzyme 1 (Rattus norvegicus), P39069 (protein)
chain: MEDKLKKAKIIFVVGGPGSGKGTQCEKIVQKYGYTHLSTGDLLRAEVSSGSSRGKMLSSIMEKGELVPLETVLDMLRDAMLAKVDSSNGFLIDGYPREVKQGEEFERKIAQPTLLLYVDAGPETMTQRLLKRGETSGRVDDNEETIKKRLETYYKATEPVISFYDKRGIVRKVNAEGSVDTVFSQVCTYLDSLK

Tests used:
[1] = substrate: C[C@H](OP(=O)(O)O)[C@H]1OC(n2cnc3c(N)ncnc32)[C@H](O)[C@@H]1O; assay: (§1) Concentration for half-maximal velocity to Adenylate kinase III
[2] = substrate: CNc1nc(N)c2ncn([C@@H]3O[C@H](COP(=O)(O)O)[C@@H](O)[C@H]3O)c2n1; assay: as §1
[3] = substrate: Nc1ncnc2c1ncn2[C@@H]1O[C@H](COP(=O)(O)O)[C@@H](O)[C@H]1O; assay: as §1
[4] = substrate: Nc1ncnc2c1ncn2[C@@H]1O[C@H](CCP(=O)(O)O)[C@@H](O)[C@H]1O; assay: as §1
[5] = substrate: C[C@@H]1[C@H](O)[C@@H](COP(=O)(O)O)O[C@H]1n1cnc2c(N)ncnc21; assay: as §1
[6] = substrate: Nc1ncnc2c1ncn2[C@@H]1O[C@H](/C=C/P(=O)(O)O)[C@@H](O)[C@H]1O; assay: as §1
[7] = substrate: Nc1nc(Cl)nc2c1ncn2[C@@H]1O[C@H](COP(=O)(O)O)[C@@H](O)[C@H]1O; assay: as §1
[8] = substrate: CCC[C@H](OP(=O)(O)O)[C@H]1OC(n2cnc3c(N)ncnc32)[C@H](O)[C@@H]1O; assay: as §1
[9] = substrate: CCNc1nc(N)c2ncn([C@@H]3O[C@H](COP(=O)(O)O)[C@@H](O)[C@H]3O)c2n1; assay: as §1
[10] = substrate: Nc1nc(N)c2ncn([C@@H]3O[C@H](COP(=O)(O)O)[C@@H](O)[C@H]3O)c2n1; assay: as §1
[11] = substrate: C[C@H](OP(=O)(O)O)[C@H]1OC(n2cnc3c(N)ncnc32)[C@H](O)[C@@H]1O; assay: (§2) Concentration of compound for half-maximal velocity to Adenylate kinase M isoenzyme
[12] = substrate: CNc1nc(N)c2ncn([C@@H]3O[C@H](COP(=O)(O)O)[C@@H](O)[C@H]3O)c2n1; assay: as §2
[13] = substrate: Nc1ncnc2c1ncn2[C@@H]1O[C@H](COP(=O)(O)O)[C@@H](O)[C@H]1O; assay: as §2
[14] = substrate: CN(C)c1nc(N)c2ncn(C3O[C@H](COP(=O)(O)O)[C@@H](O)[C@H]3O)c2n1; assay: as §2
[15] = substrate: Nc1ncnc2c1ncn2[C@@H]1O[C@H](CCP(=O)(O)O)[C@@H](O)[C@H]1O; assay: as §2
[16] = substrate: C[C@@H]1[C@H](O)[C@@H](COP(=O)(O)O)O[C@H]1n1cnc2c(N)ncnc21; assay: as §2
[17] = substrate: Nc1ncnc2c1ncn2[C@@H]1O[C@H](/C=C/P(=O)(O)O)[C@@H](O)[C@H]1O; assay: as §2
[18] = substrate: Nc1nc(Cl)nc2c1ncn2[C@@H]1O[C@H](COP(=O)(O)O)[C@@H](O)[C@H]1O; assay: as §2
[19] = substrate: CCNc1nc(N)c2ncn([C@@H]3O[C@H](COP(=O)(O)O)[C@@H](O)[C@H]3O)c2n1; assay: as §2
[20] = substrate: Nc1nc(N)c2ncn([C@@H]3O[C@H](COP(=O)(O)O)[C@@H](O)[C@H]3O)c2n1; assay: as §2

Protein	Km [1] [µM]	Km [2] [mM]	Km [3] [µM]	Km [4] [µM]	Km [5] [µM]	Km [6] [µM]	Km [7] [µM]	Km [8] [µM]	Km [9] [mM]	Km [10] [µM]	Km [11] [µM]	Km [12] [µM]	Km [13] [µM]	Km [14] [mM]	Km [15] [mM]	Km [16] [mM]	Km [17] [µM]	Km [18] [µM]	Km [19] [mM]	Km [20] [mM]
B1	1100	3.7	80	2200	790	1400	1600	830	5.4	1900										
B2											2000	2900	580	7.5	4.2	5.5	2000	2700	4.2	3.5
